Results published in the supplement of paper PMC7877785.
± gives the uncertainty stated by the source.

Experiment: self-splicing fitness, log relative to wild type (ln ratio); higher = more splicing; Tetrahymena group I intron in knt gene, E. coli kanamycin selection, DiMSum; sequences stand for … in CUCUCU…GGAGGGAAAAGUUAUCAGGCAUGCACCUGGUAGCUAGUCUUUAAACCAAUAGAUUGCAUCGGUUUAAAAGGCAAGACCGUCAAAUUGCGGGAAAGGGGUCAACAGCCGUUCAGUACCAAGUCUCAGGGGAAACUUUGAGAUGGCCUUGCAAAGGGUAUGGUAAUAAGCUGACGGACAUGGUCCUAACCACGCAGCCAAGUCCUAAGUCAACAGAUCUUCUGUUGAUAUGGAUGCAGUUCACAGACUAAAUGUCGGUCGGGGAAGAUGUAUUCUUCUCAUAAGAUAUAGUCGGACCUCUCCUUAAUGGGAGCUAGCGGAUGAAGUGAUGCAACACUGGAGCCGCUGGGAACUAAUUUGUAUGCGAAAGUAUAUUGAUUAGUUUUGGAGUACUCGUGGUCG
How it was run: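 Pooled colonies went to amplicon sequencing on an Illumina HiSeq 2500 after six replicate transformations. The plates were LB agar with 100 μg/mL carbenicillin, 50 μM IPTG and 0.2% rhamnose, with or without 25 μg/mL kanamycin, incubated overnight at 37°C or 30°C. The E. coli BL21(DE3) library had all eight P1ex-region intron nucleotides randomised, the intron placed in the knt kanamycin-resistance gene on pET-22b(+). DiMSum fitness is the error-weighted combination of replicate fold changes, kanamycin against none, normalised to wild type.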

Sequence	self-splicing fitness (ln) (30 °C)	self-splicing fitness (ln) (37 °C)
CCUCAGCAAUAUUACGGUCA	-3.48 ± 0.26	-2.04 ± 0.15
UAAAAGCAAUAUUACGAAAU	-3.04 ± 0.16	-2.45 ± 0.21
AUGGAGCAAUAUUACGGAGG	-2.11 ± 0.17	-2.54 ± 0.3
AUACAGCAAUAUUACGUAGA	-2.11 ± 0.085	-0.327 ± 0.076
AAAUAGCAAUAUUACGUUCU	-0.419 ± 0.069	-0.584 ± 0.091
AGCAAGCAAUAUUACGUUGU	-3.33 ± 0.12	-2.87 ± 0.14
UUACAGCAAUAUUACGAGCA	-1.65 ± 0.14	-0.698 ± 0.11
CUGUAGCAAUAUUACGCAAG	-2.47 ± 0.12	-1.56 ± 0.11
GAUGAGCAAUAUUACGUAAA	-3.81 ± 0.17	-1.37 ± 0.15
UGUCAGCAAUAUUACGCCGU	-1.42 ± 0.13	-1.12 ± 0.15
CUCCAGCAAUAUUACGCAUC	-4.12 ± 0.42	-2.4 ± 0.37
AUAAAGCAAUAUUACGCAGA	-1.87 ± 0.093	-0.796 ± 0.11
CCCAAGCAAUAUUACGCUUG	-3.39 ± 0.18	-1.92 ± 0.17
CGCGAGCAAUAUUACGCUAU	-3.44 ± 0.34	-2.2 ± 0.23
CAGUAGCAAUAUUACGUAUG	-2.06 ± 0.11	-1.93 ± 0.16
GUUCAGCAAUAUUACGCUCC	-0.282 ± 0.15	-0.544 ± 0.23
CGAAAGCAAUAUUACGACGC	-1.81 ± 0.13	0.0494 ± 0.18
GGCAAGCAAUAUUACGAACC	-2.41 ± 0.36	-0.982 ± 0.24
CGCAAGCAAUAUUACGGGAG	-2.73 ± 0.095	-2.19 ± 0.12
AUCAAGCAAUAUUACGGCUG	-0.736 ± 0.071	-0.0189 ± 0.11
UCGCAGCAAUAUUACGAAUU	-4.07 ± 0.34	-2.75 ± 0.17
GCUUAGCAAUAUUACGCCGU	-2.31 ± 0.21	-0.553 ± 0.18
UAGUAGCAAUAUUACGGUAC	-3.85 ± 0.48	
CCACAGCAAUAUUACGUUCC	-4.24 ± 0.24	-2.84 ± 0.27
CGAUAGCAAUAUUACGUCAC	-3.44 ± 0.26	-2.34 ± 0.25

Sequence	self-splicing fitness (ln) (30 °C)	self-splicing fitness (ln) (37 °C)
GAAAAGCAAUAUUACGCGCA	-0.195 ± 0.062	-0.0235 ± 0.084
UCAGAGCAAUAUUACGGCUG	-2.49 ± 0.19	-0.448 ± 0.2
UGUUAGCAAUAUUACGGUCA	0.281 ± 0.096	0.169 ± 0.11
GGAGAGCAAUAUUACGAAUA	-2.51 ± 0.26	
UGAUAGCAAUAUUACGGGCA	-0.911 ± 0.075	0.244 ± 0.12
UGUCAGCAAUAUUACGUCAG	-0.398 ± 0.09	-0.464 ± 0.098
UCAGAGCAAUAUUACGGCGG	-1.41 ± 0.13	0.0537 ± 0.13
UGGUAGCAAUAUUACGUGAU	-2.76 ± 0.25	-1.34 ± 0.16
UAUCAGCAAUAUUACGGGAA	-1.65 ± 0.1	-0.124 ± 0.11
CUAUAGCAAUAUUACGUAGA	-3.52 ± 0.33	-1.87 ± 0.34
CCGGAGCAAUAUUACGUGCC	-2.1 ± 0.38	-2.94 ± 0.35
CUCGAGCAAUAUUACGGAUU	-3.59 ± 0.19	-2.98 ± 0.27
UGUAAGCAAUAUUACGGGCU	-1.73 ± 0.17	-0.63 ± 0.16
AUCAAGCAAUAUUACGCACG	-2.1 ± 0.15	-2.28 ± 0.18
GGACAGCAAUAUUACGGUGU	-2.84 ± 0.11	-1.89 ± 0.12
UCCUAGCAAUAUUACGUUUA	-2.15 ± 0.18	-2.54 ± 0.23
GGUAAGCAAUAUUACGGUUG	-3.76 ± 0.39	
CCGAAGCAAUAUUACGAGAC		-2.52 ± 0.31
CCUGAGCAAUAUUACGACCG	-3.73 ± 0.39	-2.5 ± 0.37
GUUCAGCAAUAUUACGACCG	-3.83 ± 0.18	-1.93 ± 0.23
CUCAAGCAAUAUUACGUAAA	-3.37 ± 0.18	-2.48 ± 0.25
CUCCAGCAAUAUUACGUGGA	-3.5 ± 0.18	-2.7 ± 0.16
UGGUAGCAAUAUUACGUAGA	-2.54 ± 0.17	-1.16 ± 0.14
AAAGAGCAAUAUUACGUGAG	-2.95 ± 0.12	-1.02 ± 0.12
CUGCAGCAAUAUUACGGUAC	-4.59 ± 0.24	-1.81 ± 0.21

Sequence	self-splicing fitness (ln) (30 °C)	self-splicing fitness (ln) (37 °C)
UGCCAGCAAUAUUACGGAUG	-1.21 ± 0.093	-0.248 ± 0.12
CCACAGCAAUAUUACGGGGU	-3.71 ± 0.098	-2.53 ± 0.11
AUGCAGCAAUAUUACGAGAC	-3.17 ± 0.29	-2.59 ± 0.33
UGCGAGCAAUAUUACGUCUC	-0.82 ± 0.28	
GACAAGCAAUAUUACGGUUU	-1.79 ± 0.079	-0.351 ± 0.074
GUUAAGCAAUAUUACGAGUU	-1.36 ± 0.11	-0.688 ± 0.14
UCGGAGCAAUAUUACGUUCA		-2.2 ± 0.47
AGGCAGCAAUAUUACGCGGC	-3.85 ± 0.24	-2.39 ± 0.17
AUGCAGCAAUAUUACGGGGC	-4.09 ± 0.23	-2.54 ± 0.21
CCAUAGCAAUAUUACGGAUC	-1.97 ± 0.41	-1.72 ± 0.32
AGCCAGCAAUAUUACGGCUC	-2.52 ± 0.18	-3.14 ± 0.31
CGUGAGCAAUAUUACGAAUC	-2.66 ± 0.2	-2.34 ± 0.28
AUGCAGCAAUAUUACGUGUG	-2.45 ± 0.071	-1.44 ± 0.085
UUCCAGCAAUAUUACGGGAA	-2.87 ± 0.35	-2.84 ± 0.34
AAACAGCAAUAUUACGAAAC	-2.4 ± 0.24	-1.51 ± 0.23
GAUAAGCAAUAUUACGAUAU	-1.13 ± 0.095	-0.335 ± 0.15
CAACAGCAAUAUUACGAGUC	-3.58 ± 0.2	-2.58 ± 0.26
UCUAAGCAAUAUUACGAUAA	-1.46 ± 0.17	-0.693 ± 0.2
AUCAAGCAAUAUUACGCCUC	-2.77 ± 0.23	-1.6 ± 0.21
UGGUAGCAAUAUUACGUUCA	-0.227 ± 0.11	-0.354 ± 0.14
GGCCAGCAAUAUUACGGAGC	-2.25 ± 0.18	-0.92 ± 0.21
CGCAAGCAAUAUUACGCCGU	-2.67 ± 0.25	-0.883 ± 0.14
CUUAAGCAAUAUUACGACUU	-4.36 ± 0.32	-1.74 ± 0.21
UUACAGCAAUAUUACGAAUC	-3.27 ± 0.27	-2.13 ± 0.3
GGGAAGCAAUAUUACGCGUG	-1.02 ± 0.076	-0.978 ± 0.096

Sequence	self-splicing fitness (ln) (30 °C)	self-splicing fitness (ln) (37 °C)
CGAGAGCAAUAUUACGAAGU		-3.51 ± 0.39
AUGUAGCAAUAUUACGCGCA	-0.46 ± 0.16	-0.226 ± 0.15
CCAUAGCAAUAUUACGACUC	-3.37 ± 0.32	-2.18 ± 0.28
AGGCAGCAAUAUUACGCCAA	-0.987 ± 0.25	-0.179 ± 0.25
UACGAGCAAUAUUACGUAAC	-4.91 ± 0.41	-3.7 ± 0.3
AACAAGCAAUAUUACGGAAC	-3.32 ± 0.16	-1.73 ± 0.15
CGGCAGCAAUAUUACGUAAG	-0.428 ± 0.059	0.0199 ± 0.075
CAAUAGCAAUAUUACGGUCG	-0.0402 ± 0.066	0.0285 ± 0.087
UCCUAGCAAUAUUACGGCUU	-3.41 ± 0.15	-2.47 ± 0.2
CGUCAGCAAUAUUACGUUAG	-0.494 ± 0.065	-0.365 ± 0.094
AAAGAGCAAUAUUACGUCUG	-3.55 ± 0.22	-2.36 ± 0.2
GUCUAGCAAUAUUACGCACU	-0.628 ± 0.047	0.389 ± 0.063
GCUCAGCAAUAUUACGGUGA	-3.42 ± 0.25	-1.69 ± 0.16
AGCAAGCAAUAUUACGCGUG	-3.87 ± 0.19	-3.49 ± 0.27
CAACAGCAAUAUUACGAAGU		-1.78 ± 0.16
AUCUAGCAAUAUUACGUACC	-1.3 ± 0.091	-0.395 ± 0.11
GGGGAGCAAUAUUACGUGAA	-2.71 ± 0.085	-1.81 ± 0.12
GGCUAGCAAUAUUACGACCC	-1.79 ± 0.36	-0.966 ± 0.37
GUAGAGCAAUAUUACGCAAU	-2.52 ± 0.11	-0.0736 ± 0.11
UAAAAGCAAUAUUACGCGCA	-0.512 ± 0.084	0.752 ± 0.13
UAAGAGCAAUAUUACGCUUA	-3.19 ± 0.32	-2.63 ± 0.35
GCGCAGCAAUAUUACGCCCG	-1.59 ± 0.2	0.0341 ± 0.27
